{"source": "paper PMC8038949", "about": "“Structural basis for the DNA-binding activity of human ARID4B Tudor domain”", "binders": {"B1": {"name": "dsDNA1 (dsDNA)", "DNA 1": "CTCAGGTCAAAGGTCACG", "DNA 2": "TCGTGACCTTTGACCTGA"}, "B2": {"name": "dsDNA2 (dsDNA)", "DNA 1": "CTGTCAAAGGTG", "DNA 2": "TCACCTTTGACA"}}, "key": {"[1]": {"molecular_target": "T1, ARID4B TD121 (Homo sapiens, UniProt Q4LE39 1-121)", "T1 sequence": "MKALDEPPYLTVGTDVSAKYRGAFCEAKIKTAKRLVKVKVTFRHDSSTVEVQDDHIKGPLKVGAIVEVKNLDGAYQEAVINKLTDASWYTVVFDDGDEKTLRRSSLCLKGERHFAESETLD", "assay": "NMR titration; n fixed 5; text says ~110; 50 mM Tris-HCl pH 7.6, 50 mM NaCl (buffer A); ITC 25 C; EMSA 4 C, 12 uM DNA, 8% native gel in TBE; NMR titration by 1H-15N HSQC (temperature not stated for titration; buffer A also defined elsewhere as 20 mM phosphate, 100 mM NaCl, pH 7.0)", "conditions": "protein: recombinant; 5' overhang 1 nt on each strand (17 bp paired)"}, "[2]": {"molecular_target": "T2, ARID4B TD151 (Homo sapiens, UniProt Q4LE39 1-151)", "T2 sequence": "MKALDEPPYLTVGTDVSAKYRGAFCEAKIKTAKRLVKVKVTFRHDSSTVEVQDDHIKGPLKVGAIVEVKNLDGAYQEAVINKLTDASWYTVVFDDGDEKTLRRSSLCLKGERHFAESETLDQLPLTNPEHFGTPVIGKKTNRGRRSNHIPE", "assay": "ITC; 50 mM Tris-HCl pH 7.6, 50 mM NaCl (buffer A); ITC 25 C; EMSA 4 C, 12 uM DNA, 8% native gel in TBE; NMR titration by 1H-15N HSQC (temperature not stated for titration; buffer A also defined elsewhere as 20 mM phosphate, 100 mM NaCl, pH 7.0)", "conditions": "protein: recombinant; chain copies: 3; 5' overhang 1 nt on each strand (17 bp paired)"}, "[3]": {"molecular_target": "T2, ARID4B TD151", "assay": "NMR titration; n fixed 3; 50 mM Tris-HCl pH 7.6, 50 mM NaCl (buffer A); ITC 25 C; EMSA 4 C, 12 uM DNA, 8% native gel in TBE; NMR titration by 1H-15N HSQC (temperature not stated for titration; buffer A also defined elsewhere as 20 mM phosphate, 100 mM NaCl, pH 7.0)", "conditions": "protein: recombinant; chain copies: 3; 5' overhang 1 nt on each strand (17 bp paired)"}, "[4]": {"molecular_target": "T3, ARID4A TD151 (Homo sapiens, UniProt P29374 4-151)", "T3 sequence": "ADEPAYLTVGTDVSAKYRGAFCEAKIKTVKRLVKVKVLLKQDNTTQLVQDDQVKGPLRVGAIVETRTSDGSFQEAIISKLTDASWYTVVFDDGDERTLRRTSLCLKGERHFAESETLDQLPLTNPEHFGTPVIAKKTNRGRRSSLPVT", "assay": "NMR titration; n = 3; 50 mM Tris-HCl pH 7.6, 50 mM NaCl (buffer A); ITC 25 C; EMSA 4 C, 12 uM DNA, 8% native gel in TBE; NMR titration by 1H-15N HSQC (temperature not stated for titration; buffer A also defined elsewhere as 20 mM phosphate, 100 mM NaCl, pH 7.0)", "conditions": "protein: recombinant; 5' overhang 1 nt on each strand (17 bp paired)"}, "[5]": {"molecular_target": "T1, ARID4B TD121", "assay": "NMR titration; n fixed 3; 50 mM Tris-HCl pH 7.6, 50 mM NaCl (buffer A); ITC 25 C; EMSA 4 C, 12 uM DNA, 8% native gel in TBE; NMR titration by 1H-15N HSQC (temperature not stated for titration; buffer A also defined elsewhere as 20 mM phosphate, 100 mM NaCl, pH 7.0)", "conditions": "protein: recombinant; 5' overhang 1 nt on each strand (11 bp paired)"}, "[6]": {"molecular_target": "T2, ARID4B TD151", "assay": "NMR titration; n fixed 2; 50 mM Tris-HCl pH 7.6, 50 mM NaCl (buffer A); ITC 25 C; EMSA 4 C, 12 uM DNA, 8% native gel in TBE; NMR titration by 1H-15N HSQC (temperature not stated for titration; buffer A also defined elsewhere as 20 mM phosphate, 100 mM NaCl, pH 7.0)", "conditions": "protein: recombinant; chain copies: 3; 5' overhang 1 nt on each strand (11 bp paired)"}}, "data": [{"binder": "B1", "values": [{"measurement": "Kd", "setting": "[1]", "value": "111 ± 2", "unit": "µM"}, {"measurement": "Kd", "setting": "[2]", "value": "27 ± 8", "unit": "µM"}, {"measurement": "Kd", "setting": "[3]", "value": 22, "unit": "µM"}, {"measurement": "Kd", "setting": "[4]", "value": "9.7 ± 0.9", "unit": "µM"}]}, {"binder": "B2", "values": [{"measurement": "Kd", "setting": "[5]", "value": "237 ± 7", "unit": "µM"}, {"measurement": "Kd", "setting": "[6]", "value": "79 ± 3", "unit": "µM"}]}]}
